From patent US6500647 (MOGAM BIOTECHNOLOGY RESEARCH INSTITUTE, dated 2002)
Each block holds one binder with its values, some of them ahead of it.

Experiments:
[1] = molecular target: T1, PTH receptor of UMR106 cell line (rat osteoblast-like osteosarcoma cell line) (rat, UniProt P25961 27-591); test: cell-based or functional assay
T1 sequence (looked up): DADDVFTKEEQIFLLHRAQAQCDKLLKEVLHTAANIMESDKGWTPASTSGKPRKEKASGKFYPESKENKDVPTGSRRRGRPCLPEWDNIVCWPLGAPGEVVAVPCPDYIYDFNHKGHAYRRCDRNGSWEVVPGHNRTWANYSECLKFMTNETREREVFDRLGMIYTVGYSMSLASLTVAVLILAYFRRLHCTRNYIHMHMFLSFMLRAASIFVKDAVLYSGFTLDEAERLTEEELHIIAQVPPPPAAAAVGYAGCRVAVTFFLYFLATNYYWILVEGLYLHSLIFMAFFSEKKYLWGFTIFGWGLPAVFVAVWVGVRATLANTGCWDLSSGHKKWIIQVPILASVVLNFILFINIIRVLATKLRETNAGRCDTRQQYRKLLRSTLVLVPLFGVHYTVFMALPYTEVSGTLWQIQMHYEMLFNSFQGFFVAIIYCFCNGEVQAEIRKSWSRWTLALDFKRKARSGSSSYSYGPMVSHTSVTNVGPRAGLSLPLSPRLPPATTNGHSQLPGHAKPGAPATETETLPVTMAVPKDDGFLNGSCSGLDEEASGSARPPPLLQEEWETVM

[2] = molecular target: T1, PTH receptor of UMR106 cell line (rat …); test: competition with 125I-(Nle8,18Tyr34)-bPTH (1-34) for binding to UMR106 cells, 15 C, 4 h
Experimental: A binding test to PTH receptor was carried out as followings (see: Chohei Shigeno et al., The Journal of Biological Chemistry, 263(8):3864–3871(1988)): 10^5 UMR106 cells per well was added into a 24 well-plate and cultured for 4 to 8 days. Medium was exchanged every two days and it was exchanged daily at 3 days before the test. On the other hand, in order to prepare (Nle^{8,18}Tyr^34)-bovine PTH (1–34)-NH_2(bPTH (1–34)) (see: Gino V. Segre et al., JBC, 254(15) :6980–6986(1979)) which was labelled with a radioactive isotope, ^125I at a tyrosine residue of carboxy-terminus, bPTH (1–34) was iodinated with Na^125I using chloramine T (Sigma Chemical Co., USA) as a catalyst. […]
Binding affinity of PTH to its receptor was determined by comparing competitive inhibition of rhPTH (1–84) and shPTH (1–84) against ligand binding to the receptor by using the ^125I-labelled (Nle^{8,18}Tyr^34)-bPTH (1–34) as a ligand. […] The solution obtained after extraction was mixed with the solution obtained after washing with 0.5 ml of the binding buffer and counted for its radioactivity employing γ-counter.
Specific binding was determined by subtracting value of nonspecific binding measured by using each competitive hormone of 1 mM from value of binding radioactivity measured above.

EC50 (concentration of hormone required for stimulating production of intracellular cAMP to reach an increase of 50%) [1]: 1.9 nM | IC50 [2]: 18.6 nM
B1: synthetic human PTH (shPTH (1-84), Sigma Chemical Co., USA) (ligand, UniProt P01270 32-115, looked up)
chain: SVSEIQLMHNLGKHLNSMERVEWLRKKLQDVHNFVALGAPLAPRDAGSQRPRKKEDNVLVESHEKSLGEADKADVNVLTKAKSQ
notes: mature; Control hormone, bought; also called synthetic PTH

EC50 (concentration of hormone required for stimulating production of intracellular cAMP to reach an increase of 50%) [1]: 1.3 nM | IC50 [2]: 17.3 nM
B2: human recombinant PTH (rhPTH (1-84)) (ligand, UniProt P01270 32-115, looked up)
chain: B1 chain
notes: mature; also called recombinant human PTH; purified human PTH
